Results on five molecules are retold here after US20220204643A1 (published 2022).

The target of assay [1] is T1, retinoid X receptor alpha, transcript variant 1 (human, UniProt P19793 1-462).
T1 construct: HuProt array protein, full-length recombinant from yeast; also called RXRA
T1 sequence: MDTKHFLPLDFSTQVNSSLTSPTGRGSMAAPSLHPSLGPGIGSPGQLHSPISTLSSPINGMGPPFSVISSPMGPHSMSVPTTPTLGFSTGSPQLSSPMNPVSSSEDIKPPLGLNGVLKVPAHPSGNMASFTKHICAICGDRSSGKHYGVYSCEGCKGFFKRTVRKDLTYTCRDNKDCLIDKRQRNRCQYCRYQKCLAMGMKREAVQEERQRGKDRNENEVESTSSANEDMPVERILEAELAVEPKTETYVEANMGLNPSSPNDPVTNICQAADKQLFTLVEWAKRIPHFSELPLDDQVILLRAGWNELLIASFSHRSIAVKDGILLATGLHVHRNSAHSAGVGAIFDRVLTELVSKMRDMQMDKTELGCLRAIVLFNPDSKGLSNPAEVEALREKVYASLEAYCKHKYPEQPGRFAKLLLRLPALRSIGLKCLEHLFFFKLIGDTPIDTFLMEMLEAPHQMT

For assay [2], the target named is T2, synaptotagmin 12, transcript variant X4 (human, UniProt Q8IV01 1-421).
T2 construct: HuProt array protein, full-length recombinant from yeast; also called SYT12
T2 sequence: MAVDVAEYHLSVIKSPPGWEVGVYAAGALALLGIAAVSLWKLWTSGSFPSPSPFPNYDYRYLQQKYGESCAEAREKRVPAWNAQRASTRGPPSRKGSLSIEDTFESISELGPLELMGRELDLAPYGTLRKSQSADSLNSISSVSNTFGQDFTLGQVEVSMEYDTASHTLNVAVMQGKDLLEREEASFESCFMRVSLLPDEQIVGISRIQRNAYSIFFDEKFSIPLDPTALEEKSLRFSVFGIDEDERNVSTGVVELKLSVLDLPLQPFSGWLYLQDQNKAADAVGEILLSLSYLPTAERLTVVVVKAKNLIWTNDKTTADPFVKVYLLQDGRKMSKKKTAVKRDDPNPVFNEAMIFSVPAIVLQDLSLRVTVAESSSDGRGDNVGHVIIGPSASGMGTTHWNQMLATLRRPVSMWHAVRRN

Another assay deals with T3, Reticulocalbin 3 (human, UniProt Q96D15 21-328).
T3 construct: HuProt array protein, full-length recombinant from yeast; also called RCN3
T3 sequence: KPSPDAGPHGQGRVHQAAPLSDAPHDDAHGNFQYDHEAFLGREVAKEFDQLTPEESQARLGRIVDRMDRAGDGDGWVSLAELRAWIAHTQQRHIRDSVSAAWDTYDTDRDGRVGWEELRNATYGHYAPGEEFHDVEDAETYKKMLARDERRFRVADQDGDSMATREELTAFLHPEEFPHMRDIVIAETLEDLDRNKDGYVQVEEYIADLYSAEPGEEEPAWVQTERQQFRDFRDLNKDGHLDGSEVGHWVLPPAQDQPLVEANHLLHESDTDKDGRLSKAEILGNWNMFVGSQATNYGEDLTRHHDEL

In assay [3] the target is T4, glycogen phosphorylase L, transcript variant 1 (human, UniProt P06737 2-847).
T4 construct: HuProt array protein, full-length recombinant from yeast; also called PYGL
T4 sequence: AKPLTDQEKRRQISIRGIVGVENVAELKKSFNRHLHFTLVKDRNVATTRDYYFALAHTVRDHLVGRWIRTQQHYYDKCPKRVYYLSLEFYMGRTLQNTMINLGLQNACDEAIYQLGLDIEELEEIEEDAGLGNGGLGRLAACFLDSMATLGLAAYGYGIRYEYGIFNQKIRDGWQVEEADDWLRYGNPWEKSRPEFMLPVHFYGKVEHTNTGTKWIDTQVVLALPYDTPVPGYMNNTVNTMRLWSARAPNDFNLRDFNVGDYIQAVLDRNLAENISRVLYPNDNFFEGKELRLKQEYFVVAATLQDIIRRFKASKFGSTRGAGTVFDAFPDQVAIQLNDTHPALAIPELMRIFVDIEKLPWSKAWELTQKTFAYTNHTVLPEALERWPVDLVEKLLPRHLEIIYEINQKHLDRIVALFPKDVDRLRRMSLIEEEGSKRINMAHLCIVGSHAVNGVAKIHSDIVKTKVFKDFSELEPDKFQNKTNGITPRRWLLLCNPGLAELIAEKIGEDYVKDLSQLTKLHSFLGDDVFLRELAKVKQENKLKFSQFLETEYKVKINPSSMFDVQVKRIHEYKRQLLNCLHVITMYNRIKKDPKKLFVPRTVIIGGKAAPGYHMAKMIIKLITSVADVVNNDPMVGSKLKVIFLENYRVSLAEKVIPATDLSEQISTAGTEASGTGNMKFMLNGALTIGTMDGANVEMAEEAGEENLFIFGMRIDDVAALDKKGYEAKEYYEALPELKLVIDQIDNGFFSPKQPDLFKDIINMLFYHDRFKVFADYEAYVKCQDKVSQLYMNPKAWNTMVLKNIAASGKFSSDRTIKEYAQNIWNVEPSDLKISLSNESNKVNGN

Assay [4] deals with T5, kelch like family member 40 (human, UniProt Q2TBA0 1-621).
T5 construct: on protein array; also called KLHL40
T5 sequence: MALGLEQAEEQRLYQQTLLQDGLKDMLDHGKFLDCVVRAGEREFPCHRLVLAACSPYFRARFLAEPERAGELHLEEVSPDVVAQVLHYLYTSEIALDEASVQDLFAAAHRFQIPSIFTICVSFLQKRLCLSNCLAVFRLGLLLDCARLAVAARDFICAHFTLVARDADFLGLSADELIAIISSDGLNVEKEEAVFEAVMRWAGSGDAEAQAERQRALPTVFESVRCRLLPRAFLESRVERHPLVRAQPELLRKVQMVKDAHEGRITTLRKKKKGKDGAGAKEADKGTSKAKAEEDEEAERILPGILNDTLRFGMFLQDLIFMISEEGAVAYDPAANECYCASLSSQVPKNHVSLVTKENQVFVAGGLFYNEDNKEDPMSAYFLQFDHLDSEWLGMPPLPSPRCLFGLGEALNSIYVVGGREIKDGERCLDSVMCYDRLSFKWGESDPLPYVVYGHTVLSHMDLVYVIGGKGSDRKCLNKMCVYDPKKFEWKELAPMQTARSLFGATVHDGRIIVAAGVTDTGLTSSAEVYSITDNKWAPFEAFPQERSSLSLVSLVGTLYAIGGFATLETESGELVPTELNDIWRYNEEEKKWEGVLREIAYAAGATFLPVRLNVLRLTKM
The assay can be described thus: protein array.

Assay [5] concerns the target T6, membrane palmitoylated protein 2, transcript variant 3 (human, UniProt Q14168 1-576).
T6 construct: on protein array; also called MPP2
T6 sequence: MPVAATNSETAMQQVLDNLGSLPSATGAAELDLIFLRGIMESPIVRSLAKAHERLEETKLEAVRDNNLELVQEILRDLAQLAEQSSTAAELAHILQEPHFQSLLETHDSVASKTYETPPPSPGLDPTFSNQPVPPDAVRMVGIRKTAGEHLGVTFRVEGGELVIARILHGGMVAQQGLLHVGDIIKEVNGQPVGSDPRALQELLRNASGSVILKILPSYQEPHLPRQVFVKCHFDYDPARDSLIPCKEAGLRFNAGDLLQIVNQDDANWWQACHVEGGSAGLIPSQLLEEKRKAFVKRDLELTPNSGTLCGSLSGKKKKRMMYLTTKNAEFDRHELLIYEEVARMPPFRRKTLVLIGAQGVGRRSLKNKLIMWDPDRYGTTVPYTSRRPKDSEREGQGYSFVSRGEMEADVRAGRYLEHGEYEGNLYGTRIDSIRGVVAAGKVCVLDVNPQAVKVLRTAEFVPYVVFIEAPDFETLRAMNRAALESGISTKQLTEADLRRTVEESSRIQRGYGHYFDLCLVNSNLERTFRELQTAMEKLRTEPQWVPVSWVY
Briefly: protein array.

Assay [6] deals with T7, SNAP associated protein, transcript variant 1 (human, UniProt O95295 2-136).
T7 construct: HuProt array protein, full-length recombinant from yeast; also called SNAPIN
T7 sequence: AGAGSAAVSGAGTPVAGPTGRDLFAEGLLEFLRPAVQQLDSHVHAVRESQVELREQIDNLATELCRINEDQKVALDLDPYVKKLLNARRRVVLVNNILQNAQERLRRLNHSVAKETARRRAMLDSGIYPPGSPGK

Assay [7] concerns the target T8, olfactory receptor family 6 subfamily Q member 1 (gene/pseudogene) (human, UniProt Q8NGQ2 1-317).
T8 construct: HuProt array protein, full-length recombinant from yeast; also called OR6Q1
T8 sequence: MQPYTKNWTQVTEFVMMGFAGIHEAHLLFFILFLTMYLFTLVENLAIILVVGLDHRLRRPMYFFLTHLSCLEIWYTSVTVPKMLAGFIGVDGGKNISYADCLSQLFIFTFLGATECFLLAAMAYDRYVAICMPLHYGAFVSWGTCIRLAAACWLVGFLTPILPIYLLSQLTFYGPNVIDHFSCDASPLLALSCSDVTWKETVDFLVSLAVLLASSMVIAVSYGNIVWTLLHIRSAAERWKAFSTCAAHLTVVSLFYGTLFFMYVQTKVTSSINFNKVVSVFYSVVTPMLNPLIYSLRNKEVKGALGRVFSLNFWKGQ

B1: TBLA1004 (antibody, V domains shown)
VH: QITLKESGPTLVKPTQTLTLTCTFSGFSLSTSGVGVGWIRQPPGKALEWLALIYWDDDKRYSPSLKSRLTITKDTSKNQVVLTMTNMDPVDTATYYCAHRAIVGLFDYWGQGTLVTVSS
VL: PSVLTQPPSASGTPGQRVTISCSGSSSNIGSNYVYWYQQLPGTAPKFLIYRNNQRPSGVPDRFSGSKSGTSASLAISGLRSEDEADYYCAAWEDSLSGPVFGGGTKLTVL
notes: detected with anti-human IgG Fc
As for B1, the binding result in assay [1] is on record as “binds”.

B2: TBLA1007 (antibody, V domains shown)
VH: QVQLVQSGAEVKKPGASVKVSCKASGYTFTNYGFSWVRQAPGQGLEWMGRITTYNRDTIYAQKFQGRVTMTTDTSTSTAYMELRSLRSDDTAVYFCARVVPGDSVYGAFDIWGQGTMVTVSS
VL: DIQMTQSPSSLSASVGDRVTITCRASQSISSYLNWYQQKPGRAPRLLIYAASRLQIGVPSRFSGSGSGTDFTLTISSLQPEDFATYYCQQSYRMPCSFGQGTKLEI
notes: as for B1
Turning to B2, the binding result (in assay [2]; with Reticulocalbin 3; in assay [3]) was “binds” in each case.

B3: TBRE1012 (antibody, V domains shown)
VH: QVQLQESGPGLVKPTQTLSLTCTVSGGSISSGSYYWNWIRQPAGKGLEWIGNIYTSGNTDYNPSLKSRVTISLDTSKNQVSLNLTSVTAADTAVYYCATTPSSSWYWYFDPWGQGTLVTVSS
VL: DLQMTQSPSSLSASIGDRVTITCRASQSISTYFNWYQQKPGKAPKLLIYAASSLQSGVPSRFSGSGSGTDFTLTITSLQPEDFATYYCQQTYSNPWTFGQGTKVDFKR
notes: VH/VL only
Turning to B3, the binding result in assay [4] and in assay [5] was “binds” in each case.

B4: TBLA1006 (antibody, V domains shown)
VH: VQLVDSGGGLVQPGRSLRLSCAASGFVFDDYAMHWVRQVPGKGLEWVSGISWNSVSIGYADSVKGRFTISRDNAKNSLYLQMNSLRPEDAALYYCVKSFSAEYYYYYYGMDVWGQGTTVTVSS
VL: LYVLTQPPSVSVAPGTTAWISCGGNNIGIKSVHWYQQKPGQAPLLVISYDSDRPSVIPERFSVSNSGNTVTLTISRVEAGDEADYYCQVWDNGHSHWVFGGGTKLTVLG
notes: as for B1
B4: the binding result in assay [6] was “binds”.

B5: TBLA1010 (antibody, V domains shown)
VH: EVQLVESGGGLVQPGRSLRLSCAASGFPFGDYAMHWVRQAPGKGLEWVSGIGWDSGGIGYADSVKGRFTISRDIAKNSLYLEINSLRPDDTALYYCAKAAATLPYFRFAMDVWGQGTPVTVSS
VL: EIVLTQSPGTLSLSPGERATLSCRASQSVSSSYLAWYQQKPGQAPRLLIFGASTRASGIPDRFSGRGSGTEFTLTISRLEPEDFAVYYCQQYDSSPFTFGPGTKVEIKR
notes: as for B1
Consider B5, for which the binding result in assay [7] is listed as “binds”.
